# Results reported in article PMC8326426, “Resveratrol-induced Sirt1 phosphorylation by LKB1 mediates mitochondrial metabolism” (The Journal of Biological Chemistry, 2021).
# T1: His-Sirt1 core domain, aa 234 to 510 (human, UniProt Q96EB6 234-510)
# T1 construct: Sirt1, human, deacetylase core domain, aa 234 to 510; His-tagged Sirt1 was made by subcloning human Sirt1 cDNA into pET28a; also called His-tagged Sirt1 core domain; source: E. coli Rosetta (DE3), eluted
# T1 sequence (looked up): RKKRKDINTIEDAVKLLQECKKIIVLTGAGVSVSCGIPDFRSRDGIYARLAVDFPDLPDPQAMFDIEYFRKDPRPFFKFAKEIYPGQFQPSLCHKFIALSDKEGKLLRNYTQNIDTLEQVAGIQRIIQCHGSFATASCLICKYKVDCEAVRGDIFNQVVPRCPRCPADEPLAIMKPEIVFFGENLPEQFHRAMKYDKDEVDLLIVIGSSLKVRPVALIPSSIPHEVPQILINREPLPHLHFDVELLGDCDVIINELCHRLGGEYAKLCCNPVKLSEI
# T2: MBP-Sirt1 core domain, aa 234 to 510 (human, UniProt Q96EB6 234-510)
# T2 construct: Sirt1, human, deacetylase core domain, aa 234 to 510; MBP-tagged Sirt1 was made by subcloning human Sirt1 cDNA into pMal-c2X; also called MBP-tagged core domain of Sirt1; source: E. coli, purified
# T2 sequence (looked up): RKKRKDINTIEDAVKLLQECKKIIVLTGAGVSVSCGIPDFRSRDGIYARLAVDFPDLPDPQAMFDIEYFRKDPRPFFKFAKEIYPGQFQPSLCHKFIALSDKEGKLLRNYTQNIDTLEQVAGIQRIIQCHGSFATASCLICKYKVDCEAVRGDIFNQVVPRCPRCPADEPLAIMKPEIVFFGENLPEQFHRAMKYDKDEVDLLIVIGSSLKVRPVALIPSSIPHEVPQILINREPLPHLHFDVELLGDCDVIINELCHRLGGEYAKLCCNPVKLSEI
# Tests used:
# [1] = target: T1, His-Sirt1 core domain, aa 234 to 510; test: pull-down; competitive binding: 2 ug GST-LZ of DBC1 from E. coli, 2 ug eluted His-Sirt1 core domain, with or without 2 ug eluted C-terminal truncation of Sirt1 (WT or mutants), 4 h; bound fraction immunoblotted; conditions: both partners purified
# [2] = target: T2, MBP-Sirt1 core domain, aa 234 to 510; test: pull-down; MBP pull-down: MBP-Sirt1 core domain purified from E. coli incubated with eluted GST-Sirt1 C terminus (WT, 3A or 3D); bound fraction immunoblotted; conditions: both partners purified
Binder,binding result [1],binding result [2]
"LQRRYRSLLVPSDFLSVHLSWL (domain or fragment, UniProt Q8N163 243-264, looked up, DBC1 (Deleted in Breast Cancer 1), leucine zipper, aa 243 to 264; also called GST-LZ; DBC1 LZ domain; source: E. coli, purified) [GST-tagged LZ (leucine-zipper) domain of DBC1, aa 243 to 264]",binds,–
"C-terminal truncation of Sirt1, WT (eluted competitor), aa 511 to 747 (domain or fragment, human, UniProt Q96EB6 511-747, looked up, Sirt1, human, C terminus, aa 511 to 747; the methods name GST- and His-tagged Sirt1 truncations from E. coli; also called the C terminus of Sirt1; WT C terminus; source: eluted) TEKPPRTQKELAYLSELPPTPLHVSEDSSSPERTSPPDSSVIVTLLDQAAKSNDDLDVSESKGCMEEKPQEVQTSRNVESIAEQMENPDLKNVGSSTGEKNERTSVAGTVRKCWPNRVAKEQISRRLDGNQYLFLPPNRYIFHGAEVYSDSEDDVLSSSSCGSNSDSGTCQSPSLEEPMEDESEIEEFYNGLEDEPDVPERAGGAGFGTDGDDQEAINEAISVKQEVTDMNYPSNKS",binds,–
"GST-Sirt1 WT (C terminus), aa 511 to 747 (domain or fragment, human, UniProt Q96EB6 511-747, looked up, Sirt1, human, C terminus, aa 511 to 747; GST-tagged Sirt1 was made by subcloning human Sirt1 cDNA into pGEX-6p-1; also called GST-Sirt1-C; GST-tagged C terminus of Sirt1; source: E. coli Rosetta (DE3), purified (glutathione-Sepharose 4B, eluted with reduced glutathione)) TEKPPRTQKELAYLSELPPTPLHVSEDSSSPERTSPPDSSVIVTLLDQAAKSNDDLDVSESKGCMEEKPQEVQTSRNVESIAEQMENPDLKNVGSSTGEKNERTSVAGTVRKCWPNRVAKEQISRRLDGNQYLFLPPNRYIFHGAEVYSDSEDDVLSSSSCGSNSDSGTCQSPSLEEPMEDESEIEEFYNGLEDEPDVPERAGGAGFGTDGDDQEAINEAISVKQEVTDMNYPSNKS",–,binds
"GST-Sirt1 3D mutant (C terminus), aa 511 to 747 (domain or fragment, human, UniProt Q96EB6 511-747, looked up, Sirt1, human, C terminus, aa 511 to 747, Ser615, Ser669 and Ser732 replaced by Asp; source: E. coli Rosetta (DE3), purified (glutathione-Sepharose 4B, eluted with reduced glutathione)) TEKPPRTQKELAYLSELPPTPLHVSEDSSSPERTSPPDSSVIVTLLDQAAKSNDDLDVSESKGCMEEKPQEVQTSRNVESIAEQMENPDLKNVGSSTGEKNERTDVAGTVRKCWPNRVAKEQISRRLDGNQYLFLPPNRYIFHGAEVYSDSEDDVLSSDSCGSNSDSGTCQSPSLEEPMEDESEIEEFYNGLEDEPDVPERAGGAGFGTDGDDQEAINEAIDVKQEVTDMNYPSNKS",–,binds

# Continued, values first:
binding result [1],binding result [2],Binder
binds,–,"C-terminal truncation of Sirt1, 3D mutant (eluted competitor), aa 511 to 747 (domain or fragment, human, UniProt Q96EB6 511-747, looked up, Sirt1, human, C terminus, aa 511 to 747, Ser615, Ser669 and Ser732 replaced by Asp; also called 3D C terminus; source: eluted) TEKPPRTQKELAYLSELPPTPLHVSEDSSSPERTSPPDSSVIVTLLDQAAKSNDDLDVSESKGCMEEKPQEVQTSRNVESIAEQMENPDLKNVGSSTGEKNERTDVAGTVRKCWPNRVAKEQISRRLDGNQYLFLPPNRYIFHGAEVYSDSEDDVLSSDSCGSNSDSGTCQSPSLEEPMEDESEIEEFYNGLEDEPDVPERAGGAGFGTDGDDQEAINEAIDVKQEVTDMNYPSNKS"
–,binds,"GST-Sirt1 3A mutant (C terminus), aa 511 to 747 (domain or fragment, human, UniProt Q96EB6 511-747, looked up, Sirt1, human, C terminus, aa 511 to 747, Ser615, Ser669 and Ser732 replaced by Ala; source: E. coli Rosetta (DE3), purified (glutathione-Sepharose 4B, eluted with reduced glutathione)) TEKPPRTQKELAYLSELPPTPLHVSEDSSSPERTSPPDSSVIVTLLDQAAKSNDDLDVSESKGCMEEKPQEVQTSRNVESIAEQMENPDLKNVGSSTGEKNERTAVAGTVRKCWPNRVAKEQISRRLDGNQYLFLPPNRYIFHGAEVYSDSEDDVLSSASCGSNSDSGTCQSPSLEEPMEDESEIEEFYNGLEDEPDVPERAGGAGFGTDGDDQEAINEAIAVKQEVTDMNYPSNKS"
